Source: patent US8673311B2 (priority 2009, dated 2014)

System: PY79 spores
Format: physicochemical, B. subtilis

listeriolysin from Listeria monocytogenes: immunogen shown to bind to the spore
binding of other immunogens to the spore: can bind to the spore in a pH-dependant manner
